Results: publication PMC9709291 (Frontiers in Immunology, 2022)

Biological target: TcdA^1073-1464 (fragment of the delivery and receptor-binding domain of TcdA, residues 1073-1464) (Clostridioides difficile VPI10463, UniProt P16154)
Experiment: pull-down
Details: both partners purified

TcdA^1073-1464 (fragment of the delivery and receptor-binding domain of TcdA, residues 1073-1464), sequence (P16154 1073-1464): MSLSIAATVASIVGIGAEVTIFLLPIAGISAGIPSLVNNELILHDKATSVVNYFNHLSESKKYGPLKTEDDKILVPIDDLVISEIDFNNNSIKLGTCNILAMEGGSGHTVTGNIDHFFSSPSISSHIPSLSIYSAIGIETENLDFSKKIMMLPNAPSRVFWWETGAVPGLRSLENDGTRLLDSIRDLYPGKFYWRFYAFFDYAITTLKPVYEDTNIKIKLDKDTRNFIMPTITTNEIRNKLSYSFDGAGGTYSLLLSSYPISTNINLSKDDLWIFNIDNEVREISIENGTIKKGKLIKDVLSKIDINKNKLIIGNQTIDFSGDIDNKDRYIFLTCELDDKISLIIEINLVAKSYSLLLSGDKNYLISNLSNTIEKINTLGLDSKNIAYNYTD

B1: VHH AA6 (VHH)
VHH: QVQLVESGGGLVQPGGSLRLSCAASGFTFSDYVMTWVRQAPGKGPEWIATINTDGSTMRDDSTKGRFTISRDNAKNTLYLQMTSLKPEDTALYYCARGRVISASAIRGAVRGPGTQVTVSS
**Q.** Does B1 bind?
**A.** binds
